Source: patent publication US20250019454A1 (BIOCYTOGEN PHARMACEUTICALS BEIJING, published 2025)
Residue numbers refer to the chain shown, from its start.

T1: mouse TNFR2 (on transfected CHO cells) (mouse, UniProt P25119 23-474)
T1 construct: also called mTNFR2
T1 sequence: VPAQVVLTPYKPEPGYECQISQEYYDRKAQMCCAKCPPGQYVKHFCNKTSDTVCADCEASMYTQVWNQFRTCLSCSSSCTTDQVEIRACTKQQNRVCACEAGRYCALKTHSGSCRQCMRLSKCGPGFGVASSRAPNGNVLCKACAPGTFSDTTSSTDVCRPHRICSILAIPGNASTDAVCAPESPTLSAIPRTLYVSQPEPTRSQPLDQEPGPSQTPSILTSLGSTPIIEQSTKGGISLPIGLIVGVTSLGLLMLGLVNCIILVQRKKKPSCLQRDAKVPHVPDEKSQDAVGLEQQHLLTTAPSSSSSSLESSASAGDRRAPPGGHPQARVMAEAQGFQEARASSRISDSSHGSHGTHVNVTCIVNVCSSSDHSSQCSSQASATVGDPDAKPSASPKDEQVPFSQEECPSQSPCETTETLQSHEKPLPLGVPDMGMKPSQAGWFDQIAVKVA

T2: ΔCRD1-TNFR2 protein (with CRD1 deletion), on CHO-S cells (human, UniProt P20333 23-461)
T2 construct: also called CHO-SΔCRD1-TNFR2
T2 sequence: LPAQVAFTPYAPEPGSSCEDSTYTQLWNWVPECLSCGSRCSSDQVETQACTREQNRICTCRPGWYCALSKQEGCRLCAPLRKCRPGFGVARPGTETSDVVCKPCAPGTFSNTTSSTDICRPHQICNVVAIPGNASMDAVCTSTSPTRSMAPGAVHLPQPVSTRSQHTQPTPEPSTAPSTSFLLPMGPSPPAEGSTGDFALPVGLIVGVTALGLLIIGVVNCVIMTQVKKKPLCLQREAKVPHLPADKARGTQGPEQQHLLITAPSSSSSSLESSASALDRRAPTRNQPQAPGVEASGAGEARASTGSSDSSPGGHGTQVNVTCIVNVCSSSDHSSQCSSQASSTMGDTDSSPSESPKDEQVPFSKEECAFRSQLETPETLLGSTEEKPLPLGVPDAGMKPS

T3: ΔCRD2-TNFR2 protein (with CRD2 deletion), on CHO-S cells (human, UniProt P20333 23-461)
T3 construct: also called CHO-SΔCRD2-TNFR2
T3 sequence: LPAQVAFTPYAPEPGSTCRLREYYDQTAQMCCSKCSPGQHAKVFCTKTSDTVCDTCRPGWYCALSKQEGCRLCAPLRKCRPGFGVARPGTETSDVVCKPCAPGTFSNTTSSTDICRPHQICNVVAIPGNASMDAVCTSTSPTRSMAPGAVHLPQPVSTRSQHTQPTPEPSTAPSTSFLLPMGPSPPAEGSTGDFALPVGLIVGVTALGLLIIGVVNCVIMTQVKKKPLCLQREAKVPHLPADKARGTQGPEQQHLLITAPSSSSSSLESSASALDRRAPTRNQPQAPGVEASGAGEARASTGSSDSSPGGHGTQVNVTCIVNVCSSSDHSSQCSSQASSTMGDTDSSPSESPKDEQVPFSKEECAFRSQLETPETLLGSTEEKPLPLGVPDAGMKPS

T4: human TNFR2 (expressed on cells) (human, UniProt P20333 23-461)
T4 construct: also called hTNFR2; human TNF Receptor 2
T4 sequence: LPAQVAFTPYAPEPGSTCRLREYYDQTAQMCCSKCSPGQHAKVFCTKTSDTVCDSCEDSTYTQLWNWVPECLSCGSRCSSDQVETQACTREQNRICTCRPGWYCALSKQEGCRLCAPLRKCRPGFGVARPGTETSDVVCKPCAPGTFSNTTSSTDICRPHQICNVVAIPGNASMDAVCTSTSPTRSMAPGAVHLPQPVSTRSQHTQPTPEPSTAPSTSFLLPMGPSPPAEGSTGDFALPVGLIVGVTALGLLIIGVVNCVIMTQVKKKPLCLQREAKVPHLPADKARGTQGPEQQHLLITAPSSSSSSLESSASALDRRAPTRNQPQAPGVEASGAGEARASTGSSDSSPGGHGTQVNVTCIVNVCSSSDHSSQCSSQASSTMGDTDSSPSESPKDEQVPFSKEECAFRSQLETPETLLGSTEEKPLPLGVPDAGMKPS

B1: BC-1F10-IgG1 (antibody, V domains shown)
VH: QVQLQQWGAGLLKPSETLSLICAVYDGSFSGDYWSWIRQPPGKGLEWIGEINHSGSTNYNPSLKSRVTISVDTSKNQFSLKLSSVTAADTAVYYCARGHWNYDYYYGMDVWGQGTTVTVSS
VL: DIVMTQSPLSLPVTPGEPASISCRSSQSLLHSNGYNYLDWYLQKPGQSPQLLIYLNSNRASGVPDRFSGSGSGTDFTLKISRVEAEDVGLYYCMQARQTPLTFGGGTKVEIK
notes: Human VH/VL joined to the human IgG1 subtype
B2: BC-1B6-IgG1 (antibody, V domains shown)
VH: QVQLVESGGGVVQPGRSLRLSCAASGFTFSNFGMHWVRQAPGKGLEWVAVIWYEGSDKYYADSVKGRFTISRDNSKNTLYLQMNSLRAEDTAVYYCARDSSWGFLLYGMDVWGQGTTVTVSS
VL: DVVMTQSPLSLPVTLGQPASISCRSSRSLEYSDGNTYLNWFQQRPGQSPRRLIYKVSNRDSGVPDRFSGSGSGTAFTLKISGVEAEDVGVYYCMQGTHWPPTFGGGTKVEIK
notes: as for B1
B3: BC-1C3-IgG1 (antibody, V domains shown)
VH: QVQLVESGGGVVHPGKSLRLSCAASGFTFNIYGMHWVRQAPGKGLEWVALISYDGNDKYFADSVKGRFTISRDNSKNTLYLQMNSLRAEDTAVYYCAKAVDTAVVTFFDYWGQGTLVTVSS
VL: EIVMTQSPVTLSVSPGERATLSCRASQSVSSNLAWYQQKPGQAPRLLIYSASTRATGIPARFSGSGSGTEFTLTISSLQSEDLAVYYCQQYSNWPFTFGPGTKVDIK
notes: as for B1
B4: BC-1A8-IgG1 (antibody, V domains shown)
VH: QVQLQQSGPGLVKPSQTLSLTCAISGDSVSSNSAAWNWIRQSPSRGLEWLGRTYYRSKWYNDYALSVKSRITINPETSKNQFSLQLNSVTPEDTAVYYCAREDGVGGTKDYFDYWGQGTLVTVSS
VL: DIQMTQSPSSLSASVGDRVTITCQASQDIDNYLNWYQQKPGKAPKLLIYDVSNLEIGVPSRFSGSGSGTDFTFTISSLQPEDIATYYCQQYDNLPLTFGQGTRLEIK
notes: Fully human VH/VL joined to the human IgG1 subtype, kappa light chain (RenMab mice)
B5: BC-1F4-IgG1 (antibody, V domains shown)
VH: B4 VH with N32D, A34S, A64T, L65V, E76D
VL: B4 VL with D30S, V51A, I56T, S76N, I83F, Y87F, L96I
notes: as for B1

Target: T1, mouse TNFR2 (on transfected CHO cells)
Experiment: flow cytometry on transfected CHO cells
Description: 30 μl CHO cells (1×10⁵ cells) were added to each well. 30 μl purified anti-TNFR2 antibodies (10 μg/mL) (as listed in Table 4) were added to each well and were incubated at 4° C. for 30 minutes.
After two washes with PBS (1600 rmp, 6 min), 50 μl of Alexa Fluor labeled anti-human IgG Fc antibody […] was added into each well 1:500 dilution, incubated at 4° C. for 15 minutes, followed by a PBS wash (1200 rmp, 5 min). The signals for AF647 were detected by flow cytometry.

binding result	Binder
no binding (tested: 10 µg/mL)	B1
no binding (tested: 10 µg/mL)	B2
no binding (tested: 10 µg/mL)	B3
no binding (tested: 10 µg/mL)	B4
no binding (tested: 10 µg/mL)	B5

Target: T2, ΔCRD1-TNFR2 protein (with CRD1 …)
Experiment: FACS on CHO-S cells with ΔCRD1-TNFR2, AF647 anti-human IgG Fc secondary
Description: (§1) TNFR2 has four cysteine rich domains (CRD). In another experiment, FACS was used to detect the binding of anti-hTNFR2 antibodies to TNFR2 proteins with different structural domains. Secondary antibody (Alexa Fluor® 647 AffiniPure F(ab′) 2 Fragment Goat Anti-Human IgG, Fcγ fragment specific, Jackson ImmunoResearch Laboratories, Inc., Cat #: 151524) was used. The fluorescence-labeled secondary antibody can attach to the Fc region of the anti-hTNFR2 antibodies so that the anti-hTNFR2 antibodies that are bound to the ΔCRD cells can be detected by FACS. Specifically, ΔCRD1-TNFR2 protein (with CRD1 deleteion), ΔCRD2-TNFR2 protein (with CRD2 deleteion), ΔCRD3-TNFR2 protein (with CRD3 deleteion) or ΔCRD4-TNFR2 protein (with CRD4 deleteion) were expressed in CHO-S cells respectively, and then the binding between the cells and different anti-hTNFR2 antibodies was detected.

positive rate of binding (% of cells)	Binder
55.3%	B1
72.6%	B3
64.6%	B4
53.1%	B5

Target: T3, ΔCRD2-TNFR2 protein (with CRD2 …)
Experiment: FACS on CHO-S cells with ΔCRD2-TNFR2, AF647 anti-human IgG Fc secondary
Description: as §1

positive rate of binding (% of cells)	Binder
65.7%	B1
80.3%	B3
71.2%	B4
59.1%	B5

Target: T4, human TNFR2 (expressed on cells)
Experiment: flow cytometry competition, CHO cells with human TNFR2, antibody 0.039 µg/mL, Biotin-hTNFα 0.5 µg/mL
Description: (§2) 30 μl of Biotin-hTNFα (Acro Biosystems, Cat #: TNA-H82E1) was added to each well (with a final concentration of 0.5 μg/mL in each well). The cells with Biotin-hTNFα and the antibodies were incubated at 4° C. for 30 minutes.
(§3) The signals for AF647 and PE were determined by flow cytometry (Thermo Attune NX).

percentage of tested cells that had Streptavidin signals	Binder
59%	B1
78.9%	B2
77%	B3
62.8%	B4
84.6%	B5

Target: T4, human TNFR2 (expressed on cells)
Experiment: flow cytometry competition, CHO cells with human TNFR2, antibody 0.1565 µg/mL, Biotin-hTNFα 0.5 µg/mL
Description: as §2, §3

percentage of tested cells that had Streptavidin signals	Binder
55.2%	B1
82.7%	B2
74.3%	B3
67.4%	B4
76.2%	B5
